PMC10397247
Blank lines part the entries; values can stand above or below the binder they belong to.

Assays:
[1] = target: T1, 4H40-bN; experiment: two-hybrid library CCNG1;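 also: natural log of median RNA to DNA barcode read ratio; higher means stronger binding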
T1 chain: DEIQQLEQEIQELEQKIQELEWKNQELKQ

[2] = target: T2, 4H2839-bN; experiment: two-hybrid library CCNG1;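 also: natural log of median RNA to DNA barcode read ratio; higher means stronger binding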
T2 chain: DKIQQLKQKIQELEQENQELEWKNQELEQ

[3] = target: T3, 4H3277-bN; experiment: two-hybrid library CCNG1;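 also: natural log of median RNA to DNA barcode read ratio; higher means stronger binding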
T3 chain: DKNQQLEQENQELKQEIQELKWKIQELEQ

[4] = target: T4, 4H2717-bN; experiment: two-hybrid library CCNG1;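 also: natural log of median RNA to DNA barcode read ratio; higher means stronger binding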
T4 chain: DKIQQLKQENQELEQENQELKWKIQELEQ

[5] = target: T5, 4H319-bN; experiment: two-hybrid library CCNG1;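 also: natural log of median RNA to DNA barcode read ratio; higher means stronger binding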
T5 chain: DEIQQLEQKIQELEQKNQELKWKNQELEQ

[6] = target: T6, 4H741-bN; experiment: two-hybrid library CCNG1;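 also: natural log of median RNA to DNA barcode read ratio; higher means stronger binding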
T6 chain: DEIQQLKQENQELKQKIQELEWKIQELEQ

[7] = target: T7, 4H348-bN; experiment: two-hybrid library CCNG1
T7 chain: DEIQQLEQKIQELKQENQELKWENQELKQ

[8] = target: T8, 4H477-bN; experiment: two-hybrid library CCNG1
T8 chain: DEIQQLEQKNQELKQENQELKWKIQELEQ

[9] = target: T9, 4H2915-bN; experiment: two-hybrid library CCNG1
T9 chain: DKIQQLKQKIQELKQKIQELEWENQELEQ

[10] = target: T10, 4H3057-bN; experiment: two-hybrid library CCNG1
T10 chain: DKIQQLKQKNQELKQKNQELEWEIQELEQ

[11] = target: T11, 4H492-bN; experiment: two-hybrid library CCNG1
T11 chain: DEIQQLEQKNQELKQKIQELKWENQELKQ

[12] = target: T12, 4H3628-AA; experiment: two-hybrid library CCmax; details: mean of both orientations
T12 chain: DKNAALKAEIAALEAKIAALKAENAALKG

[13] = target: T13, 4H3121-AA; experiment: two-hybrid library CCmax; details: mean of both orientations
T13 chain: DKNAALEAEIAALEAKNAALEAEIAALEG

[14] = target: T14, 4H2742-AA; experiment: two-hybrid library CCmax; details: mean of both orientations
T14 chain: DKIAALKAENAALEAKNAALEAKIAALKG

[15] = target: T15, 4H3591-AA; experiment: two-hybrid library CCmax; details: mean of both orientations
T15 chain: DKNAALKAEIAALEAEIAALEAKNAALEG

[16] = target: T16, 4H428-AA; experiment: two-hybrid library CCmax; details: mean of both orientations
T16 chain: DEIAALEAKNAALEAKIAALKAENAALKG

[17] = target: T17, 4H391-AA; experiment: two-hybrid library CCmax; details: mean of both orientations
T17 chain: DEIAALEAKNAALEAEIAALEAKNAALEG

[18] = target: T18, 4H2248-AA; experiment: two-hybrid library CCmax
T18 chain: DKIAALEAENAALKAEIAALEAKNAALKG

[19] = target: T19, 4H3666-AA; experiment: two-hybrid library CCmax; details: mean of both orientations
T19 chain: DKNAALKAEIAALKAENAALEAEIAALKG

[20] = target: T20, 4H3066-AA; experiment: two-hybrid library CCmax; details: mean of both orientations
T20 chain: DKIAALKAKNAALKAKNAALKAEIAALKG

[21] = target: T21, 4H3102-AA; experiment: two-hybrid library CCmax; details: mean of both orientations
T21 chain: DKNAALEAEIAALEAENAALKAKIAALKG

[22] = target: T22, 4H971-AA; experiment: two-hybrid library CCmax; details: mean of both orientations
T22 chain: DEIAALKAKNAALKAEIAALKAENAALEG

[23] = target: T23, 4H2283-AA; experiment: two-hybrid library CCmax; details: mean of both orientations
T23 chain: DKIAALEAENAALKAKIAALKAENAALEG

[24] = target: T24, 4H3939-AA; experiment: two-hybrid library CCmax; details: mean of both orientations
T24 chain: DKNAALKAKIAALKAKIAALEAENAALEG

[25] = target: T25, 4H3029-AA; experiment: two-hybrid library CCmax; details: mean of both orientations
T25 chain: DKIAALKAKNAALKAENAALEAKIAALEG

[26] = target: T26, 4H3920-AA; experiment: two-hybrid library CCmax; details: mean of both orientations
T26 chain: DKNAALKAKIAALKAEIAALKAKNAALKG

[27] = target: T27, 4H478-AA; experiment: two-hybrid library CCmax; details: mean of both orientations
T27 chain: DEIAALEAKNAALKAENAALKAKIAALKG

[28] = target: T28, 4H2948-AA; experiment: two-hybrid library CCmax; details: mean of both orientations
T28 chain: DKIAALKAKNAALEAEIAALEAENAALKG

[29] = target: T29, 4H3709-AA; experiment: two-hybrid library CCmax; details: mean of both orientations
T29 chain: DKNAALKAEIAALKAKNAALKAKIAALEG

[30] = target: T30, 4H675-AA; experiment: two-hybrid library CCmax; details: mean of both orientations
T30 chain: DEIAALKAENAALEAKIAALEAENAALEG

[31] = target: T31, 4H2991-AA; experiment: two-hybrid library CCmax; details: mean of both orientations
T31 chain: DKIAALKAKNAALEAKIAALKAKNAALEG

[32] = target: T32, 4H2713-AA; experiment: two-hybrid library CCmax; details: mean of both orientations
T32 chain: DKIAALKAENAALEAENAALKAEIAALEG

[33] = target: T33, 4H497-AA; experiment: two-hybrid library CCmax; details: mean of both orientations
T33 chain: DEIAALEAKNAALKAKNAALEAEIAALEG

[34] = target: T34, 4H656-AA; experiment: two-hybrid library CCmax; details: mean of both orientations
T34 chain: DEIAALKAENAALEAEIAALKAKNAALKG

[35] = target: T35, 4H3446-AA; experiment: two-hybrid library CCmax; details: mean of both orientations
T35 chain: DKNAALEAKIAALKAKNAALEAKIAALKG

[36] = target: T36, 4H3417-AA; experiment: two-hybrid library CCmax; details: mean of both orientations
T36 chain: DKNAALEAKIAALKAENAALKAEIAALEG

[37] = target: T37, 4H3926-bA; experiment: two-hybrid library CCNG1
T37 chain: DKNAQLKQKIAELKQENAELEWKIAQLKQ

[38] = target: T38, 4H591-bA; experiment: two-hybrid library CCNG1
T38 chain: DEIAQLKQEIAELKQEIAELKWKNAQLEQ

[39] = target: T39, 4H3497-bA; experiment: two-hybrid library CCNG1
T39 chain: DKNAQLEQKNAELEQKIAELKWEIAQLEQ

[40] = target: T40, 4H626-bA; experiment: two-hybrid library CCNG1
T40 chain: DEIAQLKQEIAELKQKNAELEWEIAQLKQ

[41] = target: T41, 4H3628-bA; experiment: two-hybrid library CCNG1
T41 chain: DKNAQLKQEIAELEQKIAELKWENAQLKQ

[42] = target: T42, 4H3638-bA; experiment: two-hybrid library CCNG1
T42 chain: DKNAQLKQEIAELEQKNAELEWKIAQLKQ

[43] = target: T43, 4H3613-bA; experiment: two-hybrid library CCNG1
T43 chain: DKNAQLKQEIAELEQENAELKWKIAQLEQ

[44] = target: T44, 4H906-bA; experiment: two-hybrid library CCNG1
T44 chain: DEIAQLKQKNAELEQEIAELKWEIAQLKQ

[45] = target: T45, 4H3462-bA; experiment: two-hybrid library CCNG1
T45 chain: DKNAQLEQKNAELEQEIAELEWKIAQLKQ

[46] = target: T46, 4H3298-bA; experiment: two-hybrid library CCNG1
T46 chain: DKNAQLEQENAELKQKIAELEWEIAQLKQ

[47] = target: T47, 4H477-bA; experiment: two-hybrid library CCNG1
T47 chain: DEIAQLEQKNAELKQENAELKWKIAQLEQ

[48] = target: T48, 4H348-bA; experiment: two-hybrid library CCNG1
T48 chain: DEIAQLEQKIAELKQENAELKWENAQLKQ

[49] = target: T49, 4H741-bA; experiment: two-hybrid library CCNG1
T49 chain: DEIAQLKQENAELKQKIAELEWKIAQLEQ

[50] = target: T50, 4H3277-bA; experiment: two-hybrid library CCNG1
T50 chain: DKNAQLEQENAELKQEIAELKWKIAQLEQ

[51] = target: T51, 4H40-bA; experiment: two-hybrid library CCNG1
T51 chain: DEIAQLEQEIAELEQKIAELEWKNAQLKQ

[52] = target: T52, 4H492-bA; experiment: two-hybrid library CCNG1
T52 chain: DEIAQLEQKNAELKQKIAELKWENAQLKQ

[53] = target: T53, O8; experiment: two-hybrid library CCNG1
T53 chain: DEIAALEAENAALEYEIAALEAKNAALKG

[54] = target: T54, O4; experiment: two-hybrid library CCNG1
T54 chain: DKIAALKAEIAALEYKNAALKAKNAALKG

[55] = target: T55, O7; experiment: two-hybrid library CCNG1
T55 chain: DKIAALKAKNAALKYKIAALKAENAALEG

[56] = target: T56, O9; experiment: two-hybrid library CCNG1
T56 chain: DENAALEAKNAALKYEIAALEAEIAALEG

[57] = target: T57, O6; experiment: two-hybrid library CCNG1
T57 chain: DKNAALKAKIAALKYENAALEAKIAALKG

[58] = target: T58, O5; experiment: two-hybrid library CCNG1
T58 chain: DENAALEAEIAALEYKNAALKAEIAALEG

interaction score [12]: -1.59 | interaction score [13]: -1.69 | interaction score [14]: -1.88 | interaction score [15]: -1.39 | interaction score [16]: -0.478 | interaction score [17]: -1.16 | interaction score [18]: 2.16 | interaction score [19]: -0.505 | interaction score [20]: -1.25 | interaction score [21]: 2.22 | interaction score [22]: 1.05 | interaction score [23]: 2.34 | interaction score [24]: -1.4 | interaction score [25]: -1.79 | interaction score [26]: -1.51 | interaction score [27]: 0.536 | interaction score [28]: -0.353 | interaction score [29]: -1.23 | interaction score [30]: 0.827 | interaction score [31]: -0.183 | interaction score [32]: -1.2 | interaction score [33]: -2.18 | interaction score [34]: -0.26 | interaction score [35]: 0.189 | interaction score [36]: 0.548
Binder: DKIAALEAENAALKAEIAALEAKNAALKG [4H2248-AA]

interaction score [53]: -2.07 | interaction score [54]: -2.15 | interaction score [55]: -2.43 | interaction score [56]: -1.88 | interaction score [57]: -2.27 | interaction score [58]: -2.52
Binder: DKIAALKAEIAALEYKNAALKAKNAALKG [O4]

Further lines, the binder ahead of its results:

Binder: DKIQQLKQENQELEQENQELKWKIQELEQ [4H2717-bN]
interaction score [1]: -1.61 | interaction score [2]: -0.648 | interaction score [3]: -1.11 | interaction score [4]: 0.00236 | interaction score [5]: -0.684 | interaction score [6]: -2.58 | interaction score [7]: -0.289 | interaction score [8]: 1.4 | interaction score [9]: -0.6 | interaction score [10]: -1.99 | interaction score [11]: -0.854

Binder: DKNAQLEQKNAELEQEIAELEWKIAQLKQ [4H3462-bA]
interaction score [37]: 0.717 | interaction score [38]: 0.153 | interaction score [39]: 0.917 | interaction score [40]: -0.693 | interaction score [41]: -1.42 | interaction score [42]: -1.05 | interaction score [43]: -0.827 | interaction score [44]: -1.46 | interaction score [45]: 0.257

Binder: DKNAQLEQENAELKQKIAELEWEIAQLKQ [4H3298-bA]
interaction score [37]: -0.651 | interaction score [38]: -0.699 | interaction score [39]: -0.263 | interaction score [40]: -1.12 | interaction score [46]: 1.02 | interaction score [41]: -0.0439 | interaction score [43]: 0.681 | interaction score [44]: -0.638 | interaction score [45]: 0.667

Binder: DKNAQLEQENAELKQEIAELKWKIAQLEQ [4H3277-bA]
interaction score [47]: -0.644 | interaction score [48]: -0.856 | interaction score [37]: -0.539 | interaction score [38]: -1.19 | interaction score [39]: -0.961 | interaction score [40]: -0.429 | interaction score [46]: -0.215 | interaction score [41]: -0.955 | interaction score [43]: -0.514 | interaction score [49]: -1.81 | interaction score [50]: 1.38 | interaction score [51]: -1.08 | interaction score [44]: -0.838 | interaction score [45]: -0.372 | interaction score [52]: -0.379
